PMC6097439 (BMC Biology, 2018)
Numbering of substitutions follows the chain as printed.

B1: Ang2-BDBC6, soluble protein (designed binder)
chain: FRDCAEVFKSGHTTNGIYTLREGRGDNVDIKAYCDMEAGGGGWTIIQRREDGSVDFQRTWKEYKVGFGNPSGEYWLGNEFVSQLTNQQRYVLKIHLKDWEGNEAYSLYEHFYLSSEELNYRIHLKGLTGTAGKISSISQPGNDFSTKDGDNDKCICKCSQMLTGGWWFDACGPSNLNGMYYPQRQNTNKFNGIKWYYWKGSGYSLKATTMMIRPADF
notes: also called Ang2-BD bi-specific variant; source: Pichia (Multi-Copy Pichia Expression Kit), purified from yeast culture supernatant (HisTrap, Superdex 200)
B2: Ang2-BDBC5, soluble protein (designed binder)
chain: B1 chain with R21N, E22T, G23C, N27C, V28L, D29P
notes: as for B1
B3: Ang2-BDBC10, soluble protein (designed binder)
chain: B1 chain with R21Y, E22P, V28P
notes: as for B1
B4: Ang2-BDWT, soluble protein (domain or fragment, UniProt O15123 281-496, looked up)
chain: FRDCAEVFKSGHTTNGIYTLTFPNSTEEIKAYCDMEAGGGGWTIIQRREDGSVDFQRTWKEYKVGFGNPSGEYWLGNEFVSQLTNQQRYVLKIHLKDWEGNEAYSLYEHFYLSSEELNYRIHLKGLTGTAGKISSISQPGNDFSTKDGDNDKCICKCSQMLTGGWWFDACGPSNLNGMYYPQRQNTNKFNGIKWYYWKGSGYSLKATTMMIRPADF
notes: The limits 281-496 are stated for the Ang2-BDWT gene; also called wild-type Ang2 BD; mono-specific Ang2-BDWT; source: Pichia (Multi-Copy Pichia Expression Kit), purified from yeast culture supernatant (HisTrap, Superdex 200)

What was measured:
[1] = target: T1, recombinant αvβ3 integrin (human, UniProt P06756 31-992; P05106 27-718); assay: SPR; αvβ3 integrin immobilized by amine coupling (GLC chip), 12.5 to 200 nM Ang2-BD variants as analytes, 25 °C, IBB; 1:1 Langmuir model; conditions: both partners purified
T1 construct: human integrin αv subunit (Phe31-Val992); human integrin β3 subunit (Gly27-Asp718); also called solubilized αvβ3 integrin; αvβ3 integrin extracellular domain; source: bought: R&D Systems
T1 sequence (P06756 31-992, chain 1 of 2): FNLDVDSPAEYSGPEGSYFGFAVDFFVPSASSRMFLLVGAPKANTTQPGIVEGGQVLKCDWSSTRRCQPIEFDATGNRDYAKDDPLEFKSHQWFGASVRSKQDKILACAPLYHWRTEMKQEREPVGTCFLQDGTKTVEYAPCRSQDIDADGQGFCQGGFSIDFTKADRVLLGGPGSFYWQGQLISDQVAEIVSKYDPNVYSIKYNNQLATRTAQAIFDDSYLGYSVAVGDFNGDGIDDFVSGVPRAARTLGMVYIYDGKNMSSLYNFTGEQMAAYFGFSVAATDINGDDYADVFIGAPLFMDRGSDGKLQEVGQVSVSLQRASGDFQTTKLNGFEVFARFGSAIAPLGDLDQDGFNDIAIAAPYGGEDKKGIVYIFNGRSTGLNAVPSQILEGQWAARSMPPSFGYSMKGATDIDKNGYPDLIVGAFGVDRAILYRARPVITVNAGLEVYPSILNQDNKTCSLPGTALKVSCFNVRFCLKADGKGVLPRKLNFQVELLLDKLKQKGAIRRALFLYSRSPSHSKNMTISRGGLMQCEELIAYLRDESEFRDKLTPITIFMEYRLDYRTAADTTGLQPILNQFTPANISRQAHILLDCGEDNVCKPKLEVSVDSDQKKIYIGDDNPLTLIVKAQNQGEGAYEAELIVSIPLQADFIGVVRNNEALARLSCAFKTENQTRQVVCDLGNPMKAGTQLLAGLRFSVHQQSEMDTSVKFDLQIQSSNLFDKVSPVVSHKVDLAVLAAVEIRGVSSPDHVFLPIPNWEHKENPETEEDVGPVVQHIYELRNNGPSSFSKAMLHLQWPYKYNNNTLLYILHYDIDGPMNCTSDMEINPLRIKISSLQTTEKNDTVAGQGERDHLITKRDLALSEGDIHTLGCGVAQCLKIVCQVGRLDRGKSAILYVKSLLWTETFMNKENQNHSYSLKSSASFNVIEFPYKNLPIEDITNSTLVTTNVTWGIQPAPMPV
T1 sequence (P05106 27-718, chain 2 of 2): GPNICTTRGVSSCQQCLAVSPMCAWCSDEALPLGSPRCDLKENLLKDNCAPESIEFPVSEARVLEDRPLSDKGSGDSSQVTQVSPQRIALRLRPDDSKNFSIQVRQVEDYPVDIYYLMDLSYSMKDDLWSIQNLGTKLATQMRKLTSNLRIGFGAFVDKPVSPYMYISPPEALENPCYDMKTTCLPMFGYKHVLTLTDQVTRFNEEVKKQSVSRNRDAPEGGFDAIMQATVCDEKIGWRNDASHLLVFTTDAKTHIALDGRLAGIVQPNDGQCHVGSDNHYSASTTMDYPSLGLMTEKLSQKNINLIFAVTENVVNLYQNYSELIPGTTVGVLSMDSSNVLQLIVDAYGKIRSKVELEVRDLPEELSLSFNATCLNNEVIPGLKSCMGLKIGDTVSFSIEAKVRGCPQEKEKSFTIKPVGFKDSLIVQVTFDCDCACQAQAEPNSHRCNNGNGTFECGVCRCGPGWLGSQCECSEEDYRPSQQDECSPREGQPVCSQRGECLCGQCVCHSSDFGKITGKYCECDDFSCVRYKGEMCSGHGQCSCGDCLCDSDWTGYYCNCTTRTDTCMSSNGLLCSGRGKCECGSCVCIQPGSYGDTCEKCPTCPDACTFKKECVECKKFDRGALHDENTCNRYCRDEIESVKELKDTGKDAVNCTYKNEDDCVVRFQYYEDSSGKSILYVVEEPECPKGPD

[2] = target: T2, recombinant α5β1 integrin (human, UniProt P08648 42-995; P05556 21-728); assay: SPR; integrins other than αvβ3 immobilized by amine coupling, 1 μM of the Ang2-BD variants as analyte, 25 °C, IBB; conditions: both partners purified
T2 construct: human integrin α5 subunit, extracellular domain; human integrin β1 subunit, extracellular domain; source: bought: R&D Systems

[3] = target: Tie2, immobilized for SPR (human, UniProt Q02763 23-1124, Limits of the immobilized Tie2 are not printed. Taken as the mature extracellular domain (the text says extracellular domain of rhTie2 in the dual SPR experiment), ending at Lys745 as in commercial rh); assay: SPR; Tie2 immobilized, Ang2-BD variants as analytes; ProteOn XPR36; steady state fit; as previously described [54]; conditions: both partners purified
[4] = target: Tie2 expressed on TIME cells (human (endogenous in TIME cells), UniProt Q02763 23-1124); assay: cell-based or functional assay
[5] = target: αvβ3 integrin expressed on TIME cells (human (endogenous in TIME cells), UniProt P06756 31-1048; P05106 27-788); assay: cell-based or functional assay
[6] = target: T3, recombinant αvβ6 integrin (human, UniProt P06756 31-992; P18564 22-709); assay: SPR; αvβ5, αvβ1, αvβ6, αvβ8 integrins immobilized, 62.5 to 1000 nM Ang2-BDBC5 as analyte, 25 °C, IBB; two-state binding model; conditions: both partners purified
T3 construct: human integrin αv subunit, extracellular domain; human integrin β6 subunit, extracellular domain; source: bought: R&D Systems
T3 sequence (P06756 31-992, chain 1 of 2): as the sequence (P06756 31-992, chain 1 of 2) above
T3 sequence (P18564 22-709, chain 2 of 2): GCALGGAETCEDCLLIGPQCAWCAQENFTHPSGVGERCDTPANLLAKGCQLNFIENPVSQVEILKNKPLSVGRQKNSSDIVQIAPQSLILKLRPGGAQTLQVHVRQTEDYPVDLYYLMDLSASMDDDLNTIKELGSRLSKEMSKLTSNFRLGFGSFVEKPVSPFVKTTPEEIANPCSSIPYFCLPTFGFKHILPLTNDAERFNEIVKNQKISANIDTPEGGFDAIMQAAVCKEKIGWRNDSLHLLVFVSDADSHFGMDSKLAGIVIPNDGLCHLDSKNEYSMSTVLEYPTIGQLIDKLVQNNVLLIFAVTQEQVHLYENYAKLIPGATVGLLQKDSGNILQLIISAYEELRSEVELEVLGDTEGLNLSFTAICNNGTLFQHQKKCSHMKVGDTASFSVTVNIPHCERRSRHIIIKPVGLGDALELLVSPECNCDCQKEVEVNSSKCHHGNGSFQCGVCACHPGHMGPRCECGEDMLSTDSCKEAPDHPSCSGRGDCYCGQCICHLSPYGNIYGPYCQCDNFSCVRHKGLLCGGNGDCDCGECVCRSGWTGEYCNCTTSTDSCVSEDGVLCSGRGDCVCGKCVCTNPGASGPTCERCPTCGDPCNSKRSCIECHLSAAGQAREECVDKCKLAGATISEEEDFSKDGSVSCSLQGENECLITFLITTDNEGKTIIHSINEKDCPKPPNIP

[7] = target: T4, recombinant αvβ1 integrin (human, UniProt P06756 31-992; P05556 21-728); assay: as above; conditions: both partners purified
T4 construct: human integrin αv subunit, extracellular domain; human integrin β1 subunit, extracellular domain; source: bought: R&D Systems
T4 sequence (P06756 31-992, chain 1 of 2): as the sequence (P06756 31-992, chain 1 of 2) above
T4 sequence (P05556 21-728, chain 2 of 2): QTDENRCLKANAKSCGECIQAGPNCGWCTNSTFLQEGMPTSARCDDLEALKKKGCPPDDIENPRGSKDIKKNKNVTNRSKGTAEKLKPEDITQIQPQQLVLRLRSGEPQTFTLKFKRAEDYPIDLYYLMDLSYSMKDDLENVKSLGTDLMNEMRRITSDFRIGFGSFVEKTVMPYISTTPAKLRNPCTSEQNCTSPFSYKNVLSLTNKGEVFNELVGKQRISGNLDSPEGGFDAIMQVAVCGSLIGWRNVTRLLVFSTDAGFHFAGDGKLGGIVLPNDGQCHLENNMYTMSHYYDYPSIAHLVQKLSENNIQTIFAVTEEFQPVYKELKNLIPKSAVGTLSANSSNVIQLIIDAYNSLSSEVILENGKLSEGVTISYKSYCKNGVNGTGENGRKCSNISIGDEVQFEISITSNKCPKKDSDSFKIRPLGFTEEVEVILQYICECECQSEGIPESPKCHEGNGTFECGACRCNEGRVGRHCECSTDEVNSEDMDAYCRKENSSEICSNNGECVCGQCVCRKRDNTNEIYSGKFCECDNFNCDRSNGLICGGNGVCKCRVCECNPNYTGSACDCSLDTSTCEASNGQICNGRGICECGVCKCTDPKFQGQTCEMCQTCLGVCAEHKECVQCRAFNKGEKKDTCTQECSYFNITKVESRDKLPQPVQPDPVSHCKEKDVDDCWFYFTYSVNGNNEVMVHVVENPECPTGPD

[8] = target: T5, recombinant αvβ5 integrin (human, UniProt P06756 31-992; P18084 24-719); assay: as above; conditions: both partners purified
T5 construct: human integrin αv subunit, extracellular domain; human integrin β5 subunit, extracellular domain; source: bought: R&D Systems
T5 sequence (P06756 31-992, chain 1 of 2): as the sequence (P06756 31-992, chain 1 of 2) above
T5 sequence (P18084 24-719, chain 2 of 2): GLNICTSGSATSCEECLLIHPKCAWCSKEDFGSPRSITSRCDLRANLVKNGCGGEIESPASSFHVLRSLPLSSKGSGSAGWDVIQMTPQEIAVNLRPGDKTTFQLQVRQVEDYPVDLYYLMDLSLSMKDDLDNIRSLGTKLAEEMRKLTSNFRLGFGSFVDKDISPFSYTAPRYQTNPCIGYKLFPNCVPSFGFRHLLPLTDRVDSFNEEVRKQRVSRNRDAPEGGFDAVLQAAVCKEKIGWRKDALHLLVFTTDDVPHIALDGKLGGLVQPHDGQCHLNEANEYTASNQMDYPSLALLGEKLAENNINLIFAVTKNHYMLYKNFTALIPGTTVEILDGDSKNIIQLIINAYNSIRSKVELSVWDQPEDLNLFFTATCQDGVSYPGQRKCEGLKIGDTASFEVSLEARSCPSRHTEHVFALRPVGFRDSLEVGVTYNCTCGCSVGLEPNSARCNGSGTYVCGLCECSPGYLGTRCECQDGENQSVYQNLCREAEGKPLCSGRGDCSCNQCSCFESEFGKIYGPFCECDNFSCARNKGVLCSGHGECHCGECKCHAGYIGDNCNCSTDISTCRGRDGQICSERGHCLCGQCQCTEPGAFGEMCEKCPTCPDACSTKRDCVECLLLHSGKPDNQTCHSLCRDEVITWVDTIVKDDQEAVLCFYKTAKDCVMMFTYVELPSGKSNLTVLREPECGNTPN

[9] = target: T6, recombinant αvβ8 integrin (human, UniProt P06756 31-992; P26012 43-684); assay: as above; conditions: both partners purified
T6 construct: human integrin αv subunit, extracellular domain; human integrin β8 subunit, extracellular domain; source: bought: R&D Systems
T6 sequence (P06756 31-992, chain 1 of 2): as the sequence (P06756 31-992, chain 1 of 2) above
T6 sequence (P26012 43-684, chain 2 of 2): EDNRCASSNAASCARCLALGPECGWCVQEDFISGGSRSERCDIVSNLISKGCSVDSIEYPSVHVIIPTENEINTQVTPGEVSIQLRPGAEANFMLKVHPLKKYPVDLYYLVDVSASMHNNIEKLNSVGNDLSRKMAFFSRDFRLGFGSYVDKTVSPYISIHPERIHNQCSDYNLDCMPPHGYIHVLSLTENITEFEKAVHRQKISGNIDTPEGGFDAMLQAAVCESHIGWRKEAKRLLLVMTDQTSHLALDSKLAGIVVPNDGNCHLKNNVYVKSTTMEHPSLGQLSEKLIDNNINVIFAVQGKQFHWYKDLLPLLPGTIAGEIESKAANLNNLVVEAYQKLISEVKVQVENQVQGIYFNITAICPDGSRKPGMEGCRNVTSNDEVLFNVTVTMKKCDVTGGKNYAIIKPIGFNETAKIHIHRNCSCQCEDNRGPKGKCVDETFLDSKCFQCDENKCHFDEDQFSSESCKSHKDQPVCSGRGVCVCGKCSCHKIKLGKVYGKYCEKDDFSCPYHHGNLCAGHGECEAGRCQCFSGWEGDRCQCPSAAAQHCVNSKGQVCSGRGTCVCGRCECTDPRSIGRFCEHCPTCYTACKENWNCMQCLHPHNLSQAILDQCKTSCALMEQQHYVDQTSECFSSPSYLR

Binder	Kd [1] [nM]	koff [1] [s⁻¹]	kon [1] [M⁻¹ s⁻¹]	binding result [2]	Kd [3] [nM]	decrease in Tie2 phosphorylation intensity, TIME cells on vitronectin, 500 ng/ml FL-Ang1 with 1 μM variant (blocks FL-Ang1 on Tie2) [4] [%]	decrease in adhesion of TIME cells to vitronectin-coated plates, 1 μM variant, with 500 ng/ml FL-Ang1 (blocks αvβ3 integrin on vitronectin) [5] [%]	decrease in adhesion of TIME cells to vitronectin-coated plates, 1 μM variant, without FL-Ang1 (blocks αvβ3 integrin on vitronectin) [5] [%]	further results
B1	2.97	0.000236	79400	binds	1260	64	35	39	
B2	14.9	0.000444	29900	binds	1360	67	53	30	Kd [6]: 364 nM; Koff1 (two-state model, step 1) [6]: 0.00835 s⁻¹; Koff2 (two-state model, step 2) [6]: 0.00106 s⁻¹; Kon1 (two-state model, step 1) [6]: 22900 M⁻¹ s⁻¹; Kon2 (two-state model, step 2) [6]: 0.0032 s⁻¹; Kd [7]: 550 nM; Koff1 (two-state model, step 1) [7]: 0.00629 s⁻¹; Koff2 (two-state model, step 2) [7]: 0.00197 s⁻¹; Kon1 (two-state model, step 1) [7]: 11400 M⁻¹ s⁻¹; Kon2 (two-state model, step 2) [7]: 0.00304 s⁻¹; Kd [8]: 65 nM; Koff1 (two-state model, step 1) [8]: 0.00259 s⁻¹; Koff2 (two-state model, step 2) [8]: 0.00035 s⁻¹; Kon1 (two-state model, step 1) [8]: 39800 M⁻¹ s⁻¹; Kon2 (two-state model, step 2) [8]: 0.00544 s⁻¹; Kd [9]: 138 nM; Koff1 (two-state model, step 1) [9]: 0.00505 s⁻¹; Koff2 (two-state model, step 2) [9]: 0.00215 s⁻¹; Kon1 (two-state model, step 1) [9]: 36600 M⁻¹ s⁻¹; Kon2 (two-state model, step 2) [9]: 0.0024 s⁻¹
B3	4.17	0.000429	103000	binds	950	67	37	47	
B4					660				
